According to patent US20250074980A1 (BRIGHAM AND WOMEN S HOSPITAL, published 2025):
Where a chain is given by its changes, count along the chain named. Names may count otherwise. Values belong to the binder of their own block, whether it stands above or below them.

How the values were obtained:
His-tagged CEACAM1 = target: T1, His-tagged CEACAM1 (human, UniProt P13688 35-428); assay: SPR multi-cycle
T1 construct: 45 kDa SPR analyte; also called CEACAM1-HIS; CEACAM1 analyte
T1 sequence: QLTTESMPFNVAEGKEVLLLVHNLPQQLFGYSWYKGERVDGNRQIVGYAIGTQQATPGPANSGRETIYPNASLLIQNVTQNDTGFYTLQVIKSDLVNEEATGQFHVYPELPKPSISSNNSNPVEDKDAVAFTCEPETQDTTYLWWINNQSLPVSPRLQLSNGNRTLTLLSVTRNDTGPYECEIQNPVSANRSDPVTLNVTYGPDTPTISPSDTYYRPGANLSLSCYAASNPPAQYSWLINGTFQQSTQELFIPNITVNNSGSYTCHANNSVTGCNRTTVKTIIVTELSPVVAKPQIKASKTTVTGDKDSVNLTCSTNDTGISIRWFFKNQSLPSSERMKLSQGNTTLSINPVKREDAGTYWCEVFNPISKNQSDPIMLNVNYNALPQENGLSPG
Procedure, shortened: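 On a Series S Protein A chip in a Biacore T200, purified antibody at 1 μg/ml was captured to ~75 RU, and His-tagged CEACAM1 analyte flowed at 80 μl/min in 2-fold dilutions (200 to 3.125 nM or 100 to 1.5625 nM) in HBS-P+ (pH 7.4) at 25° C. Association lasted 50 or 150 seconds and dissociation 100 seconds. The resulting multi-cycle kinetic sensorgrams yielded Kon, koff, Kd and relative KD.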

[1] = target: T2, CEACAM1 on transfected HeLa cells (human, UniProt P13688 35-526); assay: flow cytometry, transfected HeLa
T2 construct: also called HeLa-CEACAM1; HeLa C1
T2 sequence: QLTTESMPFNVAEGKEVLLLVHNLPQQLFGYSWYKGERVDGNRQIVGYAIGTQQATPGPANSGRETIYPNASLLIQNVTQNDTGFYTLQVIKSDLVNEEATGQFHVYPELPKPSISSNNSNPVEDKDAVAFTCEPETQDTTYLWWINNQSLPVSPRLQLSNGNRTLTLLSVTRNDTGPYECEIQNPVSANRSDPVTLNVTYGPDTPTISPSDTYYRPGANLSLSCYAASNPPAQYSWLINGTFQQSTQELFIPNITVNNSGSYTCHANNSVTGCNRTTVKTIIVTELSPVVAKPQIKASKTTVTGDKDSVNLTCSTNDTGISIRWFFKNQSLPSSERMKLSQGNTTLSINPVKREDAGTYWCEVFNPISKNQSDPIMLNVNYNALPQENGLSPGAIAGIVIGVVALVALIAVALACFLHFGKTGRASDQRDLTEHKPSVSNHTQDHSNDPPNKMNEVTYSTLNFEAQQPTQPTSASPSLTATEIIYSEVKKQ

[2] = target: T3, CEACAM5 on transfected HeLa cells (human, UniProt P06731 35-685); assay: flow cytometry, transfected HeLa
T3 construct: whole, on cells; also called HeLa-CEACAM5; HeLa C5
T3 sequence (looked up): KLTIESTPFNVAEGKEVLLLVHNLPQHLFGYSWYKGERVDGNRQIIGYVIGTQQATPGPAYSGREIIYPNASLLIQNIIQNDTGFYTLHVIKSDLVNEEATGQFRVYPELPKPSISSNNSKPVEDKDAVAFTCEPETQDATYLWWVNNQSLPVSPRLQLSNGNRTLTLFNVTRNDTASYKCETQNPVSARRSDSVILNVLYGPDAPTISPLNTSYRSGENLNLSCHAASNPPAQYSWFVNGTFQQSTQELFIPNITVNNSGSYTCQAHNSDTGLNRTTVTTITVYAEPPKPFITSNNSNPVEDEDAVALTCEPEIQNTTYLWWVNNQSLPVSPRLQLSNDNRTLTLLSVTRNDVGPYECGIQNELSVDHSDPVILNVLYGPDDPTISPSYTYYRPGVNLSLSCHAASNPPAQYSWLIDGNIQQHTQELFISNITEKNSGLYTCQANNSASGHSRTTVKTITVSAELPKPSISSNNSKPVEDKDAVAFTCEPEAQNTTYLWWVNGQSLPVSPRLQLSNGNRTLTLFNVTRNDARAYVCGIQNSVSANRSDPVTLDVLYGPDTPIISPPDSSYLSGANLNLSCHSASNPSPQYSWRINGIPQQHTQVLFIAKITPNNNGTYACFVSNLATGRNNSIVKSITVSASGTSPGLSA

[3] = target: T4, CEACAM6 on transfected HeLa cells (human, UniProt P40199 35-320); assay: flow cytometry, transfected HeLa
T4 construct: whole, on cells; also called HeLa-CEACAM6; HeLa C6
T4 sequence (looked up): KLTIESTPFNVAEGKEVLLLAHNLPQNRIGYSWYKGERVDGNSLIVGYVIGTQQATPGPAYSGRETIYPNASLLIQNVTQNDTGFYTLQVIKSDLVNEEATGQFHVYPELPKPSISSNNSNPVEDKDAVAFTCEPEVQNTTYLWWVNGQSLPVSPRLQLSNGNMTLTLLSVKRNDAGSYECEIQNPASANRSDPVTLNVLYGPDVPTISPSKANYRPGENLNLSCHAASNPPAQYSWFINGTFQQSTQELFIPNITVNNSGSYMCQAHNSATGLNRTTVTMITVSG

GST-CEACAM1 [4] = target: T5, GST-CEACAM1 (human, UniProt P13688 35-141, limits assumed); assay: competition ELISA vs parental murine antibody
T5 construct: also called human CEACAM1-GST protein
T5 sequence: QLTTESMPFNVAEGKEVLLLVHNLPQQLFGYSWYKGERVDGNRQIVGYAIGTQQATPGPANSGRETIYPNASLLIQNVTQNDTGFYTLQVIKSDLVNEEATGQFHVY
Experimental: The binding of the purified antibodies to human CEACAM1 was assessed in a competition ELISA assay. Nunc Immuno MaxiSorp 96 well flat bottom microtitre plates were pre-coated with 1 μg/ml of GST-CEACAM1 in 1×PBS, overnight at 4° C. The following day the plates were blocked for 1 hour at room temperature (“RT”) with 2% BSA/PBS before washing 3× with PBST pH 7.4. A 3-fold dilution series of the chimeric antibody chimeric antibody VH0/Vκ0, an irrelevant IgG4 antibody, and the humanized CEACAM1 antibodies from 100 μg/ml to 0.07 or 0.002 μg/ml were pre-mixed with a constant concentration of parental murine antibody (0.45 μg/ml final concentration), added to the plate and incubated for 1 hour at room temperature. Following 3×PBST washes, the binding of the parental murine CEACAM1 antibody was detected with an anti-mouse-HRP and TMB substrate. The reaction was stopped with 3 M HCl, absorbance read at 450 nm on a Dynex Technologies MRX TC II plate reader and the binding curves plotted. The binding of the humanized CEACAM antibody variants to CEACAM1 was compared to the chimeric antibody (VHO/Vκ0), which was included on each plate.

GST-CEACAM1 [5] = target: T5, GST-CEACAM1; assay: competition ELISA vs parental murine antibody, experiment 1
GST-CEACAM1 [6] = target: T5, GST-CEACAM1; assay: competition ELISA vs parental murine antibody, experiment 2
GST-CEACAM1 [7] = target: T5, GST-CEACAM1; assay: scFv binding ELISA on GST-CEACAM1 coated at 1.0 µg/ml, anti-HIS6-HRP and TMB
Experimental: The binding of affinity matured purified scFv to human CEACAM1 was analyzed using GST-CEACAM1. A Nunc Immuno MaxiSorp 96 well flat bottom microtitre plate was pre-coated with 1.0 μg/ml GST-CEACAM1 overnight at 4° C. The following day a two-fold dilution series of VH1/Vκ8 S29A parent scFv or test scFv (50 μg/ml to 0.8 μg/ml) in PBSB was incubated for 2 hours at RT on pre-coated ELISA plates. The binding of scFv was detected with an anti-HIS6-HRP antibody and TMB substrate. The reaction was stopped with 3 M HCl, absorbance read at 450 nm on a Dynex Technologies MRX TC II plate reader and the binding curves plotted. Parent scFv (VH1/Vκ8 S29A scFv) was included on each ELISA plate as a reference. An irrelevant scFv was included on at least one plate as a negative control. It was observed that a number of scFvs had improved binding to CEACAM1 compared to the parental VH1/Vκ8 S29A scFv. […] All 34 scFv variants were reformatted to whole IgG to provide greater accuracy with regard to purity and quantitation. The reformatting further allowed for an analysis of the avidity component of antibody binding, which is influenced by the bivalent nature of IgGs. As used herein, “avidity” is the measure of the strength of binding between an antigen-binding molecule (such as an antibody or antibody fragment thereof described herein) and the pertinent antigen.

Kd (His-tagged CEACAM1): 110 nM
koff (His-tagged CEACAM1): 0.0277 s⁻¹
kon (His-tagged CEACAM1): 251000 M⁻¹ s⁻¹
relative KD (His-tagged CEACAM1): 1.05
relative amount of cells bound [1]: 77.9
relative amount of cells bound [2]: 9.82
relative amount of cells bound [3]: 0
average relative IC50 (GST-CEACAM1 [4]): 0.84
relative IC50 (GST-CEACAM1 [5]): 0.96
relative IC50 (GST-CEACAM1 [6]): 0.72
B1: VH0/Vκ0 S29A (antibody, IgG4, V domains shown)
VH: EVQLVESGGDLVKPGGSLKLACAASGFIFSSHGMSWVRQTPDKRLEWVATISSGGTYTYYPDSVKGRFTISRDNDKNTLYLQMNSLKSEDTAMYYCARHDFDYDAAWFAYWGQGTLVTVSS
VL: QIVLTQSPALMSASPGVKVTMTCSANSAVSYMYWYRQKPRSSPKPWIYLTSNLASGVPARFSGSGSGTSYSLTISSMEAEDAATYYCQQWSSNPPTFGSGTKLEIK
notes: aglycosylated chimeric, IgG4 (S241P), kappa

EC50 (read off the curve) (GST-CEACAM1 [7]): ~10 µg/mL
B2: CP08C04 (scFv)
scFv, VH-linker-VL: EVQLLESGGGLVQPGGSLRLSCAASGFTFSSHGMSWVRQAPGKGLEWVATISSGGTYTYYPDSVKGRFTISRDNSKNTLYLQMNSLKAEDTAMYYCARHDFDYDAAWFAYWGQGTLVTVSSGGGGSGGGGSGGGGSEIVLTQSPATLSLSPGERATLSCRANSAVSYMYWYQQKPGQAPRPWIYLTSNRATGVPARFSGSGSGTDYTLTISSLEPEDFAVYYCQQWSSNPPTFGQGTKLEIK
notes: purified scFv form; the IgG form is m90

EC50 (read off the curve) (GST-CEACAM1 [7]): ~10 µg/mL
B3: CP09F03 (scFv)
scFv, VH-linker-VL: B2 scFv, VH-linker-VL with S30N, S31N
notes: purified scFv form; the IgG form is m63
